Source: patent publication US20260207757A1

Tests used:
[1] = target: type 1 IGF receptor (IGF-1R) (human) (UniProt P08069); test: competition binding to IGF receptors against radioactive wild type IGF
[2] = target: type 1 IGF receptor (IGF-1R) (human) (UniProt P08069); test: displacement of 125I-IGF-1 from MCF7 cells, 4 C overnight

type 1 IGF receptor (IGF-1R) (human), sequence (P08069 31-1367): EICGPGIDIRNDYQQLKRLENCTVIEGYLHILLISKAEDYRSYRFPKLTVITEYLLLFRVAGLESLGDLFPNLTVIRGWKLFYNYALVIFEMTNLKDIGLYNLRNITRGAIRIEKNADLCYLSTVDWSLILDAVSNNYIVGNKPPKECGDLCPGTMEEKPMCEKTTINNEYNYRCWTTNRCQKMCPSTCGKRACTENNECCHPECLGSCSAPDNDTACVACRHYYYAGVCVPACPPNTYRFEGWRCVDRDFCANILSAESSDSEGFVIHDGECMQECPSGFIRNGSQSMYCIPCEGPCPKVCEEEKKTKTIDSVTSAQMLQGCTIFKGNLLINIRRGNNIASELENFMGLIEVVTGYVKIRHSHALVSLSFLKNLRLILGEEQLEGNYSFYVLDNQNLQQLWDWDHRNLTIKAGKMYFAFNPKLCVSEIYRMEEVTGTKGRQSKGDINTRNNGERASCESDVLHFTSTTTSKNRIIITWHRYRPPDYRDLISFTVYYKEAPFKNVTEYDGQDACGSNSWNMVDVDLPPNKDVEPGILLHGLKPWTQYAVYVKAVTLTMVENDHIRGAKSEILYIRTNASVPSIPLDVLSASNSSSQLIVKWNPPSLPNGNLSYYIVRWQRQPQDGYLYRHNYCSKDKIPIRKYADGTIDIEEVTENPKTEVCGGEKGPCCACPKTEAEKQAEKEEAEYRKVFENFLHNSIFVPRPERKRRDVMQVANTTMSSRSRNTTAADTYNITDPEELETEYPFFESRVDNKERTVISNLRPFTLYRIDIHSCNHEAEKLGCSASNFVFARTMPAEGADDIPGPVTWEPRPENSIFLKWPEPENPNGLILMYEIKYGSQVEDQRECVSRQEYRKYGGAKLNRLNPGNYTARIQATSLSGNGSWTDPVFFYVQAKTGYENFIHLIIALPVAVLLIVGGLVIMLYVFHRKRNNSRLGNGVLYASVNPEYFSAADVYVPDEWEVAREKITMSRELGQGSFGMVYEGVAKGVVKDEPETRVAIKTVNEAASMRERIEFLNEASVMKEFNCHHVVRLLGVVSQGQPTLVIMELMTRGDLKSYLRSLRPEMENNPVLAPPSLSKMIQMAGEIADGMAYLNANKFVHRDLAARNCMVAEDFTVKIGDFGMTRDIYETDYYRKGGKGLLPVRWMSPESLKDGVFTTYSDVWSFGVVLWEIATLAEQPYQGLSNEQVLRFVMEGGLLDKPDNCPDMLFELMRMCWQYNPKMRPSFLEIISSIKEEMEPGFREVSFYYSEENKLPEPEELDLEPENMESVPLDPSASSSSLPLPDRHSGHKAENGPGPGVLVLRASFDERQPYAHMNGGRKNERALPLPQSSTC

Kd [1]: 1 nM
Kd [2]: 3 nM
Substance: long-R3-IGF (ligand)
